Experimental data published in a protein production outcome set (Wang et al. 2014).

Assay: label from the status in PepcDB records
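Further: failed if final PepcDB status was selected cloned or expressed and not failed if soluble or beyond.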

Sequence	protein production
MKPKSMKEKLVKDMMSILNLRIKMIDVNGLLKELDDALDKVVAKKEPESFLKPIISPIEDYQKSVRQIQAQFTDAPKFNEEGAYPQFLSCGLLEIKGKNGASMEFCLPKVYPFPPKSLYIEHEKDGQFLREMLMRLLSSAPLVQLEVILVDALSLGGIFNLARRLLHKDNDFIYQQRILTESKEIEEALKHLYEYLKVNLQEKLAGYKDFAHYNEEKKDRLPLKALFLSGVDALSQNALYYLEKIMRFGSKNGVLSFVNLESEKNNKSTEDLKRYAECFKDRTSFERLKYLNIEVINDHGIQSKHMKDFADKIKAYYEKKKAVKRELKDLQKDEKFWTESSQFKVSVPVGWDINHKEVCFEIGNEQNHTLICGRSGSGKSNFLHVLIQNLAFYYAPNEVQLFLLDYKEGVEFNAYTDPNILEHARLVSVASSVGYGMSFLNWLCKEMQERANLFKQFNVKDLSDYRKHGEIPRLIVVIDEFQVLFSDNKSTKAVEGHLNTLLKKGRSYGVHLILATQTMRGTDINRSIMAQIANRIALSMDAEDSNSILGDDAACELVRPEGIFNNNGGHQKHHTKMSIPKAPDDFKPFIKKIHRDFNQRNLVPVEHKIYNGEKPLEMPNTLKANEMRLHLGKEADYEQKDLMVGFENSESHLLVVSQDLSARIALMKLFAQNFKTANKELLFYNAEKRLARELDELKKHHITPMQGPLGSVLDTAMNPNSVLVIDNLNEAKELHDKIGVEKLRSFLEKATDNEQYCIIFAHDLKQIQANYDLSKLKELLNNHFKQRLAFRCNGENLSAIKKDLPLLTNELNALFVELSKDSHTEFRPFSL	failed
MSQALPYRPDIDTLRAAAVLSVIVFHIEKDWLPGGFLGVDIFFVISGFLMTTILHREMSGGGGRFSLKAFYIRRIKRILPAFFAVLAATLAGGFFLFTKDDFFLLWKSALTALGFASNLYFARGKDYFDPAQEEKPLLHIWSLSVEEQFYFVFPILLLLVARKSLRVQFGFLAALCALSLAASFIPSALDKYYLPHLRACELLIGSLTAVWMRCRQPAVGRRCAAVGALFAVCILSTCLFSYSEQTAYFPGPAALIPCLAVAALIYFNHYEHPLKKFFQSKITVAAGLISYSLYLWHWPILAFMRYIGPDNLPPYSPAAAVVLILLLSLFSYHCIEKPFKKWQGSFAQSVLWIYALPMLILGAGSFFAMRLPFMAQYDRLGLTRSNTSCHNNTGKQCLWGDTEKQPELLVLGDSHADHYKTFFDAVGKKEKWSATMVSADACAYVEGYASRVFQNWAACRAVYRYAEEHLPRYSKVVLAMRWGSQMPENSRSLAYDAGFFQKFDRMLHKLSSEKQAVYLMADNLASSYNVQRAYILSSRIPGYRQALRPDDESTLKANARIRELAAKYPNVYIIDAAAYIPADFQIGGLPVYSDKDHINPYGGTELAKRFSEKQRFLDTRHNH	failed
MKTVNIGLIGAGRIGQLHASNIISSPYMELKAVSDVQLDHLKGTEIERSVEIMTTNPDELFSNRDIDAIFICSSTDTHAAFIKAAALAGKHIFCEKPISFHVTETKGALNIVNEAGVKFQVGFNRRYDKHFRRVQECVQAGAIGAPHIIRVSSRDPEAPPLSYVERSGGMFMDMTIHDFDMVRYLSGSEVTEVSVKAANLVDSRIGEVGDVDTAIITLMLENGAIAVIDNSRQAAYGYDQRVEVFGSLGSVSADNERKTNVQISTKDTVTLDLPKHFFLDRYEQAYKDEVAEFATAILEDQPLRCTGEDGYKAELLALAAKQSWLENRPVAVKDVEVLEEHAKSE	failed
MLHYQIEFDDYRQHLVHVTLRFLADPNQELWLPTWIPGSYLIREFSKHIESVQAYDEAGRILEIKKQQKNRWRLFNTDHELITVEYDAYAYDLSVRGAYVDQTRLYINPACVCLALGGQEEKACEVELFLPQELKHFQLATGLPSKSLVKGRFTLKAENYDQLIDSPFELAEQTRFSFEAGNIAHEMVISGIHATNTERLKNDLEKICATEVALFGSAPFQNYTFMTMATGNSYGGLEHCNSTSLIIPRTDLPKLNEPEEPSEDYQRFLGLCSHEYFHSWLVKFIRPENFARYNLNQESYTSLLWIFEGFTSYYDDLILLRSGVISQESYLKLLKAQIDRYLQNPGRQIQSVAESSFDAWIKFYRQDENSNNAGTSYYNKGCLVALCLDLGLRLRGSSLDALLRLLYQNTEKGVQVNERTIFELCQQLTGDSWIEQINHLINTTDELPLDQLFPEFGLSYALKHDKKMPFGMKLQDKPEGVMVQQVNRYGAAATAGLSAQDVIIAIDGLKASEKLLATYAKQQGIITILAFRRDELMSFEVERSTIDLAEVELVVQDQSKADHWLKV	failed
MSSESRNLNRFFLYFAGILIFFIYITPCLATYNFEGTPEQDELIEITSGTVKGGLYVDGGEGLKKTPYVQEFNVPGDVVTWARVYVGVWGGTEEKTGTLDLTINGEEFESLDLEGKNDKGDDEDQNPAIYCTGHGVYWIAYDVGTNISTGPVTVEAQTEGDIDGRVYGIILAAVYEDKEGQSTKYWVEEGNINLHGKGWSETLASTHDEGYADFSGKVDTDKYNTANLAVVYLCGTPGLDDSLYFNEEQLSDGENSNDIANSKSYFDFKFFDVLDLLEEDDNELKFQRDEEDYVHPVLAALTLGTGEEGTSDLIVSGLTVPLLYAGKDNTIKASIKNIGKDSAYGFQAALYADGEIVSTAPVSSLSSGKSKTIEFNWKPAWDGEQALKVYVDYTNKKKETCEVNNWNSPFLAKVVDLTPPELEIDYPEDGARVDAGYLTVSGTIEDTNRNLTVDVNGQNALISGESWSASVPVVSGPNTIVVSAVDGENNTGRELIVVEGKESSTDSKESSQSDLTVSSKAENETEPVNQSILGSQTREYEKQAVLSPISEGIGFISAILFLRYRNRGKRL	failed
MTSRIQMHRTSPPPAYGTSAPPSGFTLGASTTSTLQRWALPLLLVAFGLFYLLPLTSHGLWIPDETRYAQISQEMLLSGDWVAPHFMGIRYFEKPIAGYWLIAIGQAVFGDNLFGVRIASALSTGLSVLLAYLITRRMWNDPRKSFAAALLYMSFGLIAGQAGYSNLDPQFTLWVNLSLVALWFALDGRSTRERLLAWAGLGVACGMGFMTKGFLAWLLPVLIALPYMIWQRRLGELVRYGLVAVLVAIGISLPWVLSIHAHEPDFWRFFFWHEHIRRFAADNAQHTRPWWFYLPLLVASSLPWAALLPGTFMQAWKDKRQAPTGFLLLWFLLPLAFFSLSRGKLPTYIMPCLLPLAVLMGSALIDRINAIQGRSIRINSLLNLLIGVAAMVALLYIQLTRPVYGHNEMLGLSLVFIMLMGWIIANLLPAARPLQYWPAPALGIWLLVALLPAGMPGFIVHNQMPDQFIKEHIEELRQTKTLLSNDLGAASALAWRLQRPEVTLYNTEGELKYGLAYADSAQRKVSMAEVGQWVSEARKQGSVGVVMRVKDVVESEEVALLPPGGKRYEEGNMLVLILPQSQP	failed
MNINGIKLLSSRAVSKLGDVFYDYGNSTWIASMGGLGQKILGIYQIVELLVSIVLNPFGGALADRFQRRKILLITDAICAIMCFLLSFIGDDKVMVYGLIVANAILAVSNAFSSPAYKSYIPEIVDKADIITYNANLETIVQIISVSSPVLGFLIFNNFGIRITLIVDAITFLISFLFLYAIKVERVQLSKQEKVAIKNILADIADGFTYIKKEKEIMFFLIIAALLNTFLAMFNYLLPFTNSLLKTSGAYATILSISAIGSIIGALIARKIKSSINSMLSMLVFSSLGVIVMGFPSLFELPIWIPYSGSFLFNSLLTMFNIHFFSQVQIRVDEAYMGRVMSTIFTIAIMFMPIGTLFMTIFSFALSNVSFIVIGCAIAILGGLGFSYSKKQF	failed
MSLTKYHDLKNKVIVIAGGIKNLGALTAKTFALESVNLVLHYHQAKDSDTANKLKDELEDQGAKVALYQSDLSNEEEVAKLFDFAEKEFGKVDIAINTVGKVLKKPIVETSEAEFDAMDTINNKVAYFFIKQAAKHMNPNGHIITIATSLLAAYTGFYSTYAGNKAPVEHYTRAASKELMKQQISVNAIAPGPMDTSFFYGQETKESTAFHKSQAMGNQLTKIEDIAPIIKFLTTDGWWINGQTIFANGGYTTREGHHHHHH	not failed
MIVFDGHNDVLTELVRAGGRAAAGGFLSGLPGQLDLPRARAGGFGGGFFALWARSEGATDFSTLGPEYDLPLPEPVPEAQAWEMIRAQADTLVALEEAGAVRICTSTAQIARARDEGLLGAILHLEGAEGIGPDFYELEELYALGLRSLGPVWSRPNAFGHGVPFRYPSGPDIGPGLTERGRALIARCEELRILIDLSHLNLAGFREVAALSKRPLVATHSNAHARVPHARNLTDEQLRIMAESGGLAGVNFESTFLRPDGRPDDDIPAAWLLAQFDHLLDRLGEEGVAIGSDYDGCTPPAWLNSVDKLPALIAAMERHGYPAARIERICWGNWMRVLAETWGESA	failed
MVNFAVWLDGVILKIDLTDSLYKIYKGDQISLPITYEVNDDWIKVYDRIREANLAILSPYDEITTKAILERINLKPTYVIANRGKTKPSREPYRILIEVTGWDPLQVVTLASSPLDLLSARFFDSRIKVICVKRYQDCSKYSPFLYSENLDDAISSLKRLKIIR	failed
